Results on four molecules are retold here after article PMC1540706, “Role of the AP2 β-Appendage Hub in Recruiting Partners for Clathrin-Coated Vesicle Assembly” (PLoS Biology, 2006).

T1: human β2-appendage (700–937) R879A used for ITC (human, UniProt P63010 700-937, R879A)
T1 construct: AP2 β2-adaptin appendage domain, human, residues 700-937; also called R879A mutant of the β-appendage
T1 sequence (looked up): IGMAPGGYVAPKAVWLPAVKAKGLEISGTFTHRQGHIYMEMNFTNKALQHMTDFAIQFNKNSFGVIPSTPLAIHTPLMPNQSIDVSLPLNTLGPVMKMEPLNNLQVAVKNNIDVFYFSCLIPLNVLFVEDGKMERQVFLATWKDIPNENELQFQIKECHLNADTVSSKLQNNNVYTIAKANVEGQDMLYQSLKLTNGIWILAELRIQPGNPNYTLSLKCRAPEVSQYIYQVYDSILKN

B1: 6× His human Eps15-MD (530–791) (domain or fragment, UniProt P42566 530-791, looked up)
chain: STSSSETANLNEHVEGQSNLESEPIHQESPARSSPELLPSGVTDENEVTTAVTEKVCSELDNNRHSKEEDPFNVDSSSLTGPVADTNLDFFQSDPFVGSDPFKDDPFGKIDPFGGDPFKGSDPFASDCFFRQSTDPFATSSTDPFSAANNSSITSVETLKHNDPFAPGGTVVAASDSATDPFASVFGNESFGGGFADFSTLSKVNNEDPFRSATSSSVSNVVITKNVFEETSVKSEDEPPALPPKIGTPTRPCPLPPGKRSI
notes: Eps15 motif domain, human, residues 530-791 (STSSSE…GKRSI); The His-tagged form is named for SPR; also called 6× His hEps15-MD; motif domain of Eps15; source: recombinant (pET28c), purified
B2: Eps15 P-short peptide (peptide)
peptide: SFGDGFADFSTL
notes: peptide from Eps15; also called Eps15 peptide; source: synthetic peptide, bought: Institute of Biomolecular Sciences (University of Southampton)
B3: β-arrestin P-long peptide (peptide)
peptide: DDDIVFEDFARQRLKGMKDD
notes: peptide from the C-terminus of β-arrestin; also called β-arrestin peptide; arrestin peptide; source: synthetic peptide, bought: Institute of Biomolecular Sciences (University of Southampton)
B4: human β2-appendage (700–937) used for ITC (domain or fragment, UniProt P63010 700-937, looked up)
chain: T1 sequence (looked up) with A180R
notes: AP2 β2-adaptin appendage domain, human, residues 700-937; also called wild-type β2-appendage; β-appendage

What all share (test): ITC; VP-ITC; 100 mM HEPES, 50 mM NaCl, 2 mM DTT pH 7.4 at 10 °C; peptides or proteins injected from the syringe into the cell
Holding throughout (settings): both partners purified
(In general: Isothermal titration calorimetry measures the heat released or taken up as one component is titrated into another.)

The target of assay [1] is B4.
In assay [2] the target is T1, human β2-appendage (700–937) R879A used ….
Assay [3] addresses B1.

Residue numbers refer to the chain shown, from its start.

A word on the stoichiometry N: it is the number of molecules, sites or subunits per partner or assembly. In general, Kd refers to the constant that tells how readily two partners part at equilibrium.

For the molecule B1, the “stoichiometry N” value in assay [1] amounted to 2.

Molecule B2 registered a Kd in assay [1] of 46 µM. In the case of B3, the Kd in assay [1] was approximately 2 µM. In addition, the “fold stronger than with the wild-type appendage” value in assay [2] is 10 fold. B4 had a Kd in assay [3] of approximately 20 µM.
